Measurements published in US7923535B2, “Tryptophan as a functional replacement for ADP-ribose-arginine in recombinant proteins” (The United States of America as represented by the …, priority 2002, dated 2011).
Positions count from the first letter of the chain named. Names and notes keep the numbering of the source. “Also recorded” adds a separate entry of the source.

T1: ART2b(R204K) (Rattus norvegicus, UniProt P20974, R204K)
T1 construct: made in house; host or cells: rat mammary adenocarcinoma (NMU) cells, pMAMneo vector, dexamethasone-induced; released with PI-PLC
T1 sequence (P20974 21-246 R204K limits assumed): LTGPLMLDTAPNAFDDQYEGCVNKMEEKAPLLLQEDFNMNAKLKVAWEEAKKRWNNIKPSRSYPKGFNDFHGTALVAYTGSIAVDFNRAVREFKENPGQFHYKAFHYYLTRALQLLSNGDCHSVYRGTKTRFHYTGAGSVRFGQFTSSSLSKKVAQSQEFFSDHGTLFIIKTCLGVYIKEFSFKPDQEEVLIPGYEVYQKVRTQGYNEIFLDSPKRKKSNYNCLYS

B1: ART2b(R204W): rat ART2b with arginine-to-tryptophan substitution at position 204 (protein, UniProt P20974 21-246, looked up, variant R204W)
T-cell …: T1 sequence (P20974 21-246 R204K limits assumed) with K184W
B2: ART2b: rat ADP-ribosyltransferase ART2b (RT6.2), SEQ ID NO:12, wild type (protein, listed as Rattus norvegicus)
chain: MPSNICKFFLTWWLIQQVTGLTGPLMLDTAPNAFDDQYEGCVNKMEEKAPLLLQEDFNMNAKLKVAWEEAKKRWNNIKPSRSYPKGFNDFHGTALVAYTGSIAVDFNRAVREFKENPGQFHYKAFHYYLTRALQLLSNGDCHSVYRGTKTRFHYTGAGSVRFGQFTSSSLSKKVAQSQEFFSDHGTLFIIKTCLGVYIKEFSFRPDQEEVLIPGYEVYQKVRTQGYNEIFLDSPKRKKSNYNCLYSSAGARESCVSLFLVVLPSLLVQLLCLAEP
B3: ART2b(R204K): rat ART2b with arginine-to-lysine substitution at position 204 (protein)
chain: T1 sequence (P20974 21-246 R204K limits assumed)
B4: ART2b(R81K): rat ART2b with arginine-to-lysine substitution at position 81 (protein)
chain: T1 sequence (P20974 21-246 R204K limits assumed) with R61K, K184R
B5: ART2a(Y204R): rat ART2a with tyrosine-to-arginine substitution at position 204 (protein)
chain: T1 sequence (P20974 21-246 R204K limits assumed) with Q34K, M39K, N40S, A41E, R61M, A83G, K153T, Q158P, H164D, K184R
B6: ART2a(M81R,Y204R): rat ART2a with M81R and Y204R substitutions (protein, UniProt P17982 21-246, looked up, variant M81R Y204R)
T-cell …: T1 sequence (P20974 21-246 R204K limits assumed) with Q34K, M39K, N40S, A41E, A83G, K153T, Q158P, H164D, K184R
B7: ART2a(59MNA61,Y204R): rat ART2a with K59M, S60N, E61A and Y204R substitutions, non-glycosylated (protein, UniProt P17982 21-246, looked up, variant K59M S60N E61A Y204R)
T-cell …: T1 sequence (P20974 21-246 R204K limits assumed) with Q34K, R61M, A83G, K153T, Q158P, H164D, K184R
B8: ART2a: rat ADP-ribosyltransferase ART2a (RT6.1), SEQ ID NO:11, wild type (protein, listed as Rattus norvegicus)
chain: MPSNICKFFLTWWLIQQVTGLTGPLMLDTAPNAFDDQYEGCVNKMEEKAPLLLKEDFNKSEKLKVAWEEAKKRWNNIKPSMSYPKGFNDFHGTALVAYTGSIGVDFNRAVREFKENPGQFHYKAFHYYLTRALQLLSNGDCHSVYRGTKTRFHYTGAGSVRFGQFTSSSLSKTVAQSPEFFSDDGTLFIIKTCLGVYIKEFSFYPDQEEVLIPGYEVYQKVRTQGYNEIFLDSPKRKKSNYNCLYSSAGTRESCVSLFLVVLTSLLVQLLCLAEP
B9: ART2a(M81R): rat ART2a with methionine-to-arginine substitution at position 81 (protein)
chain: T1 sequence (P20974 21-246 R204K limits assumed) with Q34K, M39K, N40S, A41E, A83G, K153T, Q158P, H164D, K184Y

System: not listed separately
Experiment: ADP-ribosyltransferase assay with agmatine as ADP-ribose acceptor
Assay type: biochemical, rat
Conditions: 20 mM agmatine as ADP-ribose acceptor
Method: (§1) NADase activity was measured in DPBS with 0.1 mM [carbonyl-^14C]NAD (8×10^4 cpm) for 1 hour at 30° C., (total volume=150,u). Samples (50,u) were applied to AG1-X2 (BIO-RAD, Hercules, Calif.) columns (0.4×4 cm), equilibrated and eluted with water for liquid scintillation counting as described (Moss et al., Proc Natl Acad Sci U S A 73(12):4424-7, 1976). Transferase activity was assayed similarly with or without 20 mM agmatine as ADP-ribose acceptor and with [adenine-^14C]NAD substituted for [carbonyl-^14C]NAD.

Row | Molecule | transfer of ADP-ribose to agmatine
1 | B1 | unable to transfer ADP-ribose to agmatine
2 | B2 | unable to transfer ADP-ribose to agmatine

Biological target: T1, ART2b(R204K)
Experiment: Incubation of wildtype ART2b with ART2b(R204K) and millimolar NAD (intermolecular modification)
Assay type: biochemical
Conditions: millimolar NAD, with or without ART2b(R204K)
Method: The blots contain samples from cells expressing wild type ART2b (lanes 1), ART2b(R204K) (lanes 2), or a mixtures of samples containing ART2b and ART2b(R204K) (lanes 3). Samples were incubated with or without 10 μM [^32P]NAD followed by either TCA precipitation or further incubation with 5 mM NAD. The radiolabeled wild type ART2b and ART2b(R204K) proteins were combined and then incubated with or without 5 mM NAD.
To investigate whether ART2b(R204K) could be modified, wildtype ART2b was incubated with its mutant ART2b(R204K) and millimolar NAD (FIG. 5).

Row | Molecule | modification (mobility on SDS-PAGE) after incubation of wildtype ART2b with ART2b(R204K) and NAD
3 | B3 | not modified by wildtype ART2b in an intermolecular reaction
4 | B2 | exhibited decreasing mobility on SDS-PAGE

System: not listed separately
Experiment: Auto-ADP-ribosylation of PI-PLC released recombinant ART2 proteins with [^32P]NAD, SDS-PAGE
Assay type: biochemical, rat
Conditions: 10 μM [^32P]NAD, followed by 5 mM unlabeled NAD
Method: To investigate the structural basis for these differences in catalytic function, site-specific mutagenesis was employed with synthesis of recombinant ART2b and ART2a proteins in rat adenocarcinoma cells (NMU) under a dexamethasone-sensitive promoter. After induction and expression of the GPI-anchored proteins, cells were incubated with PI-PLC to cleave the GPI anchor and then [^32P]-NAD was added to the medium to promote auto-ADP-ribosylation of the released protein (FIG. 2).
To assess the ability of ART2 proteins, ART2a and ART2b, to be auto-ADP-ribosylated at multiple sites, proteins were incubated first with 10 μM [^32P]NAD, followed by addition of 5 mM unlabeled NAD and further incubation (FIG. 4). […] It is unlikely that auto-modification was due to non-enzymatic addition of [^32P]ADP-ribose since reactions were carried out in the presence of 1 mM ADP-ribose, or due to NAD binding, since the radiolabel was not displaced by incubation with 5 mM NAD.

Row | Molecule | auto-ADP-ribosylation at multiple sites (decrease in mobility on SDS-PAGE)
5 | B3 | not modified by incubation with NAD
6 | B1 | weak auto-ADP-ribosylation activity at multiple sites
7 | B2 | exhibited auto-ADP-ribosylation following incubation with 5 mM NAD
8 | B4 | exhibited auto-ADP-ribosylation following incubation with 5 mM NAD
9 | B5 | exhibited auto-ADP-ribosylation following incubation with 5 mM NAD
10 | B6 | exhibited auto-ADP-ribosylation following incubation with 5 mM NAD
11 | B7 | exhibited auto-ADP-ribosylation following incubation with 5 mM NAD

Same assay, conditions: [^32P]NAD added to PI-PLC released protein; SDS-PAGE

Row | Molecule | auto-ADP-ribosylation
12 | B3 | abolished both the primary and secondary modifications
13 | B1 | auto-ADP-ribosylation at non-arginine sites
14 | B2 | significantly auto-ADP-ribosylated; also recorded: Multiple species of auto-ADP-ribosylated
15 | B8 | not significantly auto-modified
16 | B4 | no effect on auto-ADP-ribosylation
17 | B5 | auto-ADP-ribosylation of both glycosylated 33 kDa and nonglycosylated 29 kDa forms was observed
18 | B6 | auto-ADP-ribosylation of both glycosylated 33 kDa and nonglycosylated 29 kDa forms was observed
19 | B9 | had no effect

System: not listed separately
Experiment: NAD glycohydrolase (NADase) assay
Assay type: biochemical, rat
Conditions: PI-PLC released recombinant protein from NMU cells; 0.1 mM [carbonyl-^14C]NAD, 1 hour at 30° C.
Method: as §1

Row | Molecule | NADase activity
20 | B1 | greater than that of wild-type ART2b
21 | B2 | have NADase activity
22 | B8 | have NADase activity

Same assay, conditions: change over the course of the reaction

Row | Molecule | NADase activity during the course of the reaction (rate of NAD hydrolysis)
23 | B3 | did not change
24 | B1 | decreased during the course of the reaction
25 | B2 | decreased during the course of the reaction
